Experimental data taken from patent US20230117205A1, “B7-H4 ANTIBODY-DRUG CONJUGATES FOR THE TREATMENT OF CANCER” (SEAGEN INC., priority 2021, published 2023).

Columns and labels:
[1] = target: hFcγRIIa H131 (biotinylated avi-tagged, fused with monomeric Fc) (human) (UniProt P12318); test: BLI (Octet HTX), biotinylated hFcγRIIa H131 on streptavidin biosensors, ADC in solution, 30 C, 1:1 fit
[2] = target: hFcγRIIIa F158 (biotinylated avi-tagged, fused with monomeric Fc) (human) (UniProt P08637); test: BLI (Octet HTX), biotinylated hFcγRIIIa F158 on streptavidin biosensors, ADC in solution, 30 C, 1:1 fit
[3] = target: T1, human B7-H4 on cells (human, UniProt Q7Z7D3 25-282); test: IHC on cell pellets, SKBR3 cells that express B7-H4 endogenously
T1 sequence: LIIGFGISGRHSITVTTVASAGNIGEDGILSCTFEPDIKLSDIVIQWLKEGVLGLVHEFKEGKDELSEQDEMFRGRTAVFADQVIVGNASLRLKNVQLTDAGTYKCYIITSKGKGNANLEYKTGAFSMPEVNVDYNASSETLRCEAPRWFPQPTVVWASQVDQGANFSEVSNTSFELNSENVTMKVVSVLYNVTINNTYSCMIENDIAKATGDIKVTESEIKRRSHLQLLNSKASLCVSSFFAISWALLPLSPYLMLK

[4] = target: T1, human B7-H4 on cells; test: IHC on cell pellets, HCC1569 cells that express B7-H4 endogenously
[5] = target: T1, human B7-H4 on cells; test: IHC on cell pellets, HCC1954 cells that express B7-H4 endogenously
[6] = target: T1, human B7-H4 on cells; test: IHC on cell pellets, ZR-75-30 cells that express B7-H4 endogenously
[7] = target: T1, human B7-H4 on cells; test: IHC on cell pellets, MDA-MB-468 cells that express B7-H4 endogenously
[8] = target: T1, human B7-H4 on cells; test: cell-based or functional assay
[9] = target: hFcγRI (biotinylated avi-tagged, fused with monomeric Fc) (human) (UniProt P12314); test: BLI (Octet HTX), biotinylated hFcγRI on streptavidin biosensors, antibody in solution, 30 C, 1:1 fit
hFcγRI (biotinylated avi-tagged, fused with monomeric Fc) (human), sequence (P12314 16-292): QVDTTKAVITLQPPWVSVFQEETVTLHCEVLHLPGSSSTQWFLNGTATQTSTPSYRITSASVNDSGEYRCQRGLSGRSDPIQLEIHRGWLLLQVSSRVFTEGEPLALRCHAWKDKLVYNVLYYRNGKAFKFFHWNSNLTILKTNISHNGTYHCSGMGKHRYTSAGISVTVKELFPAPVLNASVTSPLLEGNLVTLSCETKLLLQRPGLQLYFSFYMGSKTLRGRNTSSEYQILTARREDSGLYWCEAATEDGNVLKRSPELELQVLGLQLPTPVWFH

[10] = target: hFcγRIIb (biotinylated avi-tagged, fused with monomeric Fc) (human) (UniProt P31994); test: BLI (Octet HTX), biotinylated hFcγRIIb on streptavidin biosensors, antibody in solution, 30 C, 1:1 fit
hFcγRIIb (biotinylated avi-tagged, fused with monomeric Fc) (human), sequence (P31994 43-217): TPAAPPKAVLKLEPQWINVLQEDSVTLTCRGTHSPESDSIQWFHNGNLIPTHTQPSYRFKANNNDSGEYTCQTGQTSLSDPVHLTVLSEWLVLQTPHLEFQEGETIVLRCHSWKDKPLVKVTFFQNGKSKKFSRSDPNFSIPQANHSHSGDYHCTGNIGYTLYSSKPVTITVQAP

[11] = target: hFcγRIIa R131 (biotinylated avi-tagged, fused with monomeric Fc) (human) (UniProt P12318); test: BLI (Octet HTX), biotinylated hFcγRIIa R131 on streptavidin biosensors, antibody in solution, 30 C, 1:1 fit
hFcγRIIa R131 (biotinylated avi-tagged, fused with monomeric Fc) (human), sequence (P12318 34-217 H167R): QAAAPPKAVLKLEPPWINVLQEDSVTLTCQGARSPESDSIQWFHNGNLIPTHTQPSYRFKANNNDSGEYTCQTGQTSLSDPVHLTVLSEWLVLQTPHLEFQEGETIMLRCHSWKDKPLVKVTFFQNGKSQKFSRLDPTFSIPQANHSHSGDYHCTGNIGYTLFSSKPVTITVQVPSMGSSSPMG

[12] = target: hFcγRIIIa F158 (biotinylated avi-tagged, fused with monomeric Fc) (human) (UniProt P08637); test: BLI (Octet HTX), biotinylated hFcγRIIIa F158 on streptavidin biosensors, antibody in solution, 30 C, 1:1 fit
[13] = target: hFcγRIIIa V158 (biotinylated avi-tagged, fused with monomeric Fc) (human) (UniProt P08637); test: BLI (Octet HTX), biotinylated hFcγRIIIa V158 on streptavidin biosensors, antibody in solution, 30 C, 1:1 fit
hFcγRIIIa V158 (biotinylated avi-tagged, fused with monomeric Fc) (human), sequence (P08637 17-208 F176V): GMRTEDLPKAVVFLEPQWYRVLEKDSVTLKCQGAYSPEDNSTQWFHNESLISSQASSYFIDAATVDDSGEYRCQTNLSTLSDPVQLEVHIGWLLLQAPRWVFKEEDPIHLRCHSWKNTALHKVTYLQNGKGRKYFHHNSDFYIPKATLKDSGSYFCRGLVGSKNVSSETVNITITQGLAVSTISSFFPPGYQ

[14] = target: hscFcRN (biotinylated avi-tagged, fused with monomeric Fc) (human) (UniProt P55899); test: BLI (Octet HTX), biotinylated hscFcRN on streptavidin biosensors, antibody in solution, pH 6.0, 30 C, 1:1 fit
hscFcRN (biotinylated avi-tagged, fused with monomeric Fc) (human), sequence (P55899 24-297 limits assumed, form in doubt, chain 1 of 2): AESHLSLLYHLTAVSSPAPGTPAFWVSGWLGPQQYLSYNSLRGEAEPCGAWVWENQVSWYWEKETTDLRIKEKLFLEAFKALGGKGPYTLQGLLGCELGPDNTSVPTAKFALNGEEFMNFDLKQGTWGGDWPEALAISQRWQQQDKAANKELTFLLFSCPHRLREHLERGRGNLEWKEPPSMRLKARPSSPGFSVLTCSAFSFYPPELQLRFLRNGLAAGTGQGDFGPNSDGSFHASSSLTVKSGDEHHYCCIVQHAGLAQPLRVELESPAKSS
hscFcRN (biotinylated avi-tagged, fused with monomeric Fc) (human), sequence (chain, as listed by the source limits assumed, form in doubt, chain 2 of 2): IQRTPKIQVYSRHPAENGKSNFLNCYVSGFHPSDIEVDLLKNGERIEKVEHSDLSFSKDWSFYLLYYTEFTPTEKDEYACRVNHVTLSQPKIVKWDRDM

SGN-B7H4V (antibody)
Kd [1]: 4.2 µM
Kd [2]: 10.4 µM

anti-B7-H4 antibody clone D1M8I
intensity score [3]: 3
intensity score [4]: 3
intensity score [5]: 2
intensity score [6]: 1
intensity score [7]: 3

non-binding control ADC (antibody)
x50 (ng/mL), in vitro cytotoxicity, MDA-MB-468, 96 h, 3D spheroid, CellTiter-Glo [8]: > 1000 ng/mL
x50 (ng/mL), in vitro cytotoxicity, MX1, 96 h, 3D spheroid, CellTiter-Glo [8]: > 1000 ng/mL
x50 (ng/mL), in vitro cytotoxicity, SKBR3, 96 h, 3D spheroid, CellTiter-Glo [8]: > 1000 ng/mL

positive control mAb (the anti-CD70 mAb h1F6) (antibody)
Kd [9]: 0.0018 µM
Kd [10]: 29 µM
Kd [11]: 3.1 µM
Kd [12]: 4.8 µM
Kd [13]: 0.78 µM
Kd [14]: 0.0103 µM

B1: B7H41001 mAb quenched fluorophore conjugate (antibody, human IgG1, kappa, V domains shown)
VH: QLQLQESGPGLVKPSETLSLTCTVSGGSIKSGSYYWGWIRQPPGKGLEWIGNIYYSGSTYYNPSLRSRVTISVDTSKNQFSLKLSSVTAADTAVYYCAREGSYPNQFDPWGQGTLVTVSS
VL: EIVMTQSPATLSVSPGERATLSCRASQSVSSNLAWYQQKPGQAPRLLIYGASTRATGIPARFSGSGSGTEFTLTISSLQSEDFAVYYCQQYHSFPFTFGGGTKVEIKR
modifications: Cy5 dye and quencher pair attached by the same vc linker as in SGN-B7H4V; sites not stated
apparent half-life of the increase of fluorescent signal (internalization, quenched fluorophore assay on SKBR3 and MX-1 cells) [8]: 3.2 to 4.9 h
